From article PMC3079366
Read-outs that look alike come from different tables or passages of the source.

Measured: localisation_or_trafficking

GluA1: GluA1-4KR (K813, K819, K822, K868 to R) co-transfected with Nedd4-1 in HEK293T
abolishes: ubiquitination at K813 | ubiquitination at K819 | ubiquitination at K822 | ubiquitination at K868
